Experiments:
[1] = Thermal denaturation by circular dichroism; assay type: physicochemical; settings: thermal denaturation curves, CD
Protocol: Secondary structure and temperature stability of recombinant proteins were determined by recording circular dichroism spectra (CD) on a Jasco J-815 spectropolarimetar (JASCO, Easton, MD, USA) with automatic temperature control according to Jajčanin-Jozić et al.. Analysis of protein secondary structure from CD spectra was performed by using the CDSSTR program at the DICHROWEB site (http://public-1.cryst.bbk.ac.uk/cdweb/html). Protein concentrations were determined by the Bradford method.

[2] = tested on: E. coli BK2118 (tag, alkA); assay: MMS complementation assay; assay type: cell-based, Escherichia coli; settings: pUC18 constructs, 1 mM to 5 mM MMS plates, 2 days, 37°C

B1: PgDPP III: full-length dipeptidyl peptidase III from P. gingivalis W83 (PG_0317), 886 aa (protein)
chain: MTKETTQHRSGERIARFADIEVLSYRADLFGTLTPKQRMLCYHLSEAALRGRDITTIQNCRYNLWVRSLMERIYTHLSKSERTDDFALLEEYLFCIWFANGIHHHYSGAKFIARFSPGFLRAALREAGVELEPEEQVLLERVLYDTDFLPKQTEQSGEEDIIKASSVNFYAPGITRAEAESHYKNLIEALPENEKSCPPSFGLNTRLIRSTSGELKDEVCCIDGLYGPAIEAVVASLEAAIPYTENEEQAACIRLLCDYYRTGDIRLYDRFCIRWVENNRTRIDFINGFTEVYADPIGIHGSWEGLVHMQDEEAGRRTRIISEHAGWFEAHSPIDARFRKKNPHGISATVVNVLTIAGDSYPATPIGINLPNADWIRAEHGSKSVTIDNITDAYNHAARGTGLYEEFIPDEEVRRHVELHADLTDSLHTDLHECLGHGSGQLLPGVPGDALGEHASTLEETRADLFALYFLADPKMIELGLLTDPDAYKANYYKYMLNGLMTQLVRIKRGEEIEEAHMRNRALIARYVLEHAERPGAMSLVCEEGKTALVIKDYEAVRAIIAGLLTEVQRIKSEGDYTAGKALVERYAVHVDPLLHEEVLTRYAKLDIAPYKGFVNPRLRPVYNSEGRLTDATIEYTEGYAEQMLRYSAEYSFLPTDSPLLQEARRLRSHLRRAMDGVLSASMREKGLHYGINFGVTREHLLRLARTADASAPLADYLWRRDVRETKILATMIFPAEELTHEQATRLLREADNVELREQLTANLLERMPEAIRSIGRWIESKETTPDMMTGVLTLAARLFTRGIFPEDVPAEKLLTLAILHLSDEEQKAELRRASALLLKRYGRGSAERTKKVLCLLPESSQDTAPVLYELCEDIRFELDFYPKDE
modifications: left off: His tag, C-terminal, state not stated
- Tm [1]: 50 °C
- rescue of alkylation-sensitive phenotype / alkylation repair function (in words) [2]: absence of any alkylation repair function
- rescue of alkylation-sensitive phenotype / alkylation repair function (in words) ([2]; listed as full length PgDPP III): does not possess alkylation repair function

Source: publication PMC5708649, “A novel Porphyromonas gingivalis enzyme: An atypical dipeptidyl peptidase III with an ARM repeat domain” (PLoS ONE, 2017)
